Measured values taken from PMC2715239.
Values joined by “and” are separate entries in the source; they are usually repeats but may differ in a detail not shown here. Equal entries are not always repeated. One block for each substance: values may come before it.

Experiments:
Assay in all cases: SEC-MALS
[1] = biological target: BcMCM N399 truncation (Bacillus cereus)
[2] = biological target: full-length Bacillus cereus MCM (BcMCM) (Bacillus cereus)
[3] = biological target: BcMCM C200 truncation (Bacillus cereus)

stoichiometry N [1]: 2 and 4
Substance: BcMCM N399 truncation (domain or fragment)

stoichiometry N [2]: 2
Substance: full-length Bacillus cereus MCM (BcMCM) (enzyme)

stoichiometry N [3]: 2 and 3 and 4
Substance: BcMCM C200 truncation (domain or fragment)
